These are literature values, as cited in publication PMC5323041.

Where two headings read alike, the source gives them in different places.

Series [1] concerns the target oxytocin (Mus musculus) (UniProt P35454).
Series [2] has the same target. This is another data set of the same source.

UniProt P35454, sequence (P35454 whole entry, looked up): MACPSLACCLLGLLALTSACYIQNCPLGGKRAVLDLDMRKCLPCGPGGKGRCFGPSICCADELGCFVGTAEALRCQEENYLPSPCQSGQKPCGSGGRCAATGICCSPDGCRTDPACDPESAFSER

By Kd is commonly meant a measure of binding affinity in units of concentration. With oxytocin receptor (from UniProt P97926), in the series with oxytocin (Mus musculus) [1], the Kd is 0.001 µM.

Take “vasopressin V1a receptor (from UniProt Q62463)”: in the series with oxytocin (Mus musculus) [2], the Kd is 0.025 µM.
